Assay results reported in the supplement of paper PMC9233669.
Variants at the floor of the assay were thinned out.

Legend:
[1] = tested on: biotinyl-Leu-oxazolone; experiment: self-aminoacylation, catalytic enhancement (BLO) (fold over background); higher = more active; k-Seq, kA / k0A0; sequences stand for … in GGGAAUGGAUCCACAUCUACGAAUUC…UUCACUGCAGACUUGACGAAGCUG
Procedure, shortened: (§1)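 Mutagenized RNA pools with a 21-nt variable region (0.43 μM) were reacted with each biotinyl-aminoacyl-oxazolone at 2–1250 μM for 90 minutes at room temperature, in 50 μL HEPES/NaCl/KCl/MgCl2/CaCl2 buffer containing 5% acetonitrile at pH 6.9–7.0. RNA captured on streptavidin was quantified by triplicate qPCR and by Illumina sequencing. The fraction reacted for each sequence was fit to a pseudo-first-order model with bootstrapping, and catalytic enhancement is the median kA divided by the uncatalyzed rate, taken as the low-activity peak of a bimodal Gaussian fit.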

[2] = tested on: biotinyl-Ile-oxazolone; experiment: self-aminoacylation, catalytic enhancement (BIO) (fold over background); higher = more active; k-Seq, kA / k0A0; sequences stand for … in GGGAAUGGAUCCACAUCUACGAAUUC…UUCACUGCAGACUUGACGAAGCUG
Procedure, shortened: as §1

[3] = tested on: biotinyl-Val-oxazolone; experiment: self-aminoacylation, catalytic enhancement (BVO) (fold over background); higher = more active; k-Seq, kA / k0A0; sequences stand for … in GGGAAUGGAUCCACAUCUACGAAUUC…UUCACUGCAGACUUGACGAAGCUG
Procedure, shortened: as §1

[4] = tested on: biotinyl-Trp-oxazolone; experiment: self-aminoacylation, catalytic enhancement (BWO) (fold over background); higher = more active; k-Seq, kA / k0A0; sequences stand for … in GGGAAUGGAUCCACAUCUACGAAUUC…UUCACUGCAGACUUGACGAAGCUG
Procedure, shortened: as §1

[5] = tested on: biotinyl-Met-oxazolone; experiment: self-aminoacylation, catalytic enhancement (BMO) (fold over background); higher = more active; k-Seq, kA / k0A0; sequences stand for … in GGGAAUGGAUCCACAUCUACGAAUUC…UUCACUGCAGACUUGACGAAGCUG
Procedure, shortened: as §1

[6] = tested on: biotinyl-Phe-oxazolone; experiment: self-aminoacylation, catalytic enhancement (BFO) (fold over background); higher = more active; k-Seq, kA / k0A0; sequences stand for … in GGGAAUGGAUCCACAUCUACGAAUUC…UUCACUGCAGACUUGACGAAGCUG
Procedure, shortened: as §1

Sequence	self-aminoacylation [1]	self-aminoacylation [2]	self-aminoacylation [3]	self-aminoacylation [4]	self-aminoacylation [5]	self-aminoacylation [6]
AUAACCCUGGUAAUCGAGUGA [Fam2.1 aminoacylation ribozyme variant]	8.57	3.97	3.58	9.38	7.93	42.6
AUAACCCUGGUCAUAGAGUGA [Fam2.1 aminoacylation ribozyme variant]	8.65	3.62	3.61	9.78	8.34	49
AUAACCCUGGUCAUCCAGUGA [Fam2.1 aminoacylation ribozyme variant]	6.28	3.62	3.21	6.17	5.52	22.8
AUAACCCUGGUCAUCGAAUGA [Fam2.1 aminoacylation ribozyme variant]	0.798	0.882	0.954	0.785	1.07	0.579
AUAACCCUGGUCAUCGAGCGA [Fam2.1 aminoacylation ribozyme variant]	2.88	1.62	1.59	1.52	1.58	1.91
AUAACCCUGGUCAUCGAUUGA [Fam2.1 aminoacylation ribozyme variant]	1.02	0.94	0.974	0.392	0.883	0.646
AUAACCCUGGUCAUCUAGUGA [Fam2.1 aminoacylation ribozyme variant]	9.2	4.52	4.77	10.1	8.88	45.7
AUAACCCUUGUCAUCGAGUGA [Fam2.1 aminoacylation ribozyme variant]	6.26	3.29	3.13	7.89	6.3	21.5
AUACACCUACGUCAUCGGGUG [Fam2.2 aminoacylation ribozyme variant]	5.2	3.12	2.49	3.83	4.6	31.8
AUACACCUAGGGCAUCGGGUG [Fam2.2 aminoacylation ribozyme variant]	3.71	2.99	2.43	4.14	2.83	17.1
AUACACCUAGGUCAGCGGGUG [Fam2.2 aminoacylation ribozyme variant]	3.49	2.29	2.15	3.08	3.8	15.5
AUACACCUAGGUCAUAGGGUG [Fam2.2 aminoacylation ribozyme variant]	1.36	1.35	1.43	2.14	1.23	3.76
AUACACCUAGGUCAUCGGGGG [Fam2.2 aminoacylation ribozyme variant]	1.39	1.85	1.73	1.22	1.29	4.96
AUACACCUAGGUCAUCGGGUG [Fam2.2 aminoacylation ribozyme variant]	3.88	2.93	2.96	4.29	3.88	19.8
AUACACCUAGGUCAUCGGGUU [Fam2.2 aminoacylation ribozyme variant]	2.79	2.4	2.14	2.69	2.15	1.76
AUACACCUAGGUCAUGGGGUG [Fam2.2 aminoacylation ribozyme variant]	3.49	2.52	2.26	3.4	3.51	18.6
AUACACCUGGGUCAUCGGGUG [Fam2.2 aminoacylation ribozyme variant]	4.41	3.31	3.54	3.69	4.39	14.8
AUACACCUUGGUCAUCGGGUG [Fam2.2 aminoacylation ribozyme variant]	4.72	3.47	2.89	4.4	3.63	19.9
AUACUGCAAACAAUCGGUCUG [Fam1A.1 aminoacylation ribozyme variant]	1.18	1.08	1.05	1.44	1.09	2.49
AUACUUCAAACAAGCGGUCUG [Fam1A.1 aminoacylation ribozyme variant]	1.01	0.977	0.986	0.889	0.884	0.83
AUACUUCAAACAAUAGGUCUG [Fam1A.1 aminoacylation ribozyme variant]	0.835	1.08	0.923	0.803	0.812	1.25
AUACUUCAAACAAUCGAUCUG [Fam1A.1 aminoacylation ribozyme variant]	0.485	0.684	0.59	0.648	0.535	0.915
AUACUUCAAACAAUCGUUCUG [Fam1A.1 aminoacylation ribozyme variant]	0.706	0.709	0.745	0.897	0.81	1.23
AUACUUCAAACCAUCGGUCUG [Fam1A.1 aminoacylation ribozyme variant]	0.902	1.1	0.917	1.07	0.774	0.887
AUACUUCAAGCAAUCGGUCUG [Fam1A.1 aminoacylation ribozyme variant]	0.853	0.786	0.77	1.48	0.824	2.15
AUCACCCCGGUCAUCGAGUGA [Fam2.1 aminoacylation ribozyme variant]	10.2	4.51	4.47	9.73	8.33	52.6

Sequence	self-aminoacylation [1]	self-aminoacylation [2]	self-aminoacylation [3]	self-aminoacylation [4]	self-aminoacylation [5]	self-aminoacylation [6]
AUCACCCUGGUCAUAGAGUGA [Fam2.1 aminoacylation ribozyme variant]	13.2	5.17	4.92	13.2	13.6	85.7
AUCACCCUGGUCAUCCAGUGA [Fam2.1 aminoacylation ribozyme variant]	7.91	4.34	3.61	6.77	6.56	41.2
AUCACUCUGGUCAUCGAGUGA [Fam2.1 aminoacylation ribozyme variant]	3.85	3.2	2.9	4.03	3.12	13.9
AUCAUCCUGGUCAUCGAGUGA [Fam2.1 aminoacylation ribozyme variant]	10.1	4.91	4.82	10.5	9.33	36.4
AUCCACAUAGGUCAUCGGGUG [Fam2.2 aminoacylation ribozyme variant]	12.1	5.82	6.77	8.91	10.1	78.8
AUCCACCCAGGUCAUCGGGUG [Fam2.2 aminoacylation ribozyme variant]	7.15	4.15	5.18	7.4	5.87	40
AUCCACCUAGGUCAUCGGGAG [Fam2.2 aminoacylation ribozyme variant]	1.68	1.88	2.17	2.19	1.65	1.03
AUCCACCUAGGUCAUCGGGUC [Fam2.2 aminoacylation ribozyme variant]	1.93	1.72	2.04	2.68	2.25	5.86
AUCCACCUAGGUCAUCGGGUU [Fam2.2 aminoacylation ribozyme variant]	19	9.74	7.64	12	14.3	71.1
AUCCACCUAGGUCAUCUGGUG [Fam2.2 aminoacylation ribozyme variant]	3.74	2.26	2.28	2.77	2.77	26.4
AUCCACCUAGGUCAUGGGGUG [Fam2.2 aminoacylation ribozyme variant]	6.65	3.54	3.77	5.9	5.64	56.5
AUCCACCUCGGUCAUCGGGUG [Fam2.2 aminoacylation ribozyme variant]	7.66	5.06	7	7.66	7.86	72.4
AUCCACCUUGGUCAUCGGGUG [Fam2.2 aminoacylation ribozyme variant]	7.29	4.12	5.35	6.99	6.42	45.5
AUCCCCCUGGUCAUCGAGUGA [Fam2.1 aminoacylation ribozyme variant]	6.5	3.85	4.12	7.31	5.79	45.2
AUCGACCUAGGUCAUCGGGUG [Fam2.2 aminoacylation ribozyme variant]	6.35	4.48	4.44	6.33	5.83	8.6
AUGAACCUGGUCAUCGAGUGA [Fam2.1 aminoacylation ribozyme variant]	6.61	3.31	3.17	6.4	5.7	5.16
AUGACCAUGGUCAUCGAGUGA [Fam2.1 aminoacylation ribozyme variant]	8.09	4.29	4.28	9.59	7.94	22.1
AUGACCCAGGUCAUCGAGUGA [Fam2.1 aminoacylation ribozyme variant]	5.25	2.5	2.5	5.92	4.72	17.9
AUGACCCCGGUCAUCGAGUGA [Fam2.1 aminoacylation ribozyme variant]	8.55	3.51	3.3	6.78	6.75	39.9
AUGACCCUGCUCAUCGAGUGA [Fam2.1 aminoacylation ribozyme variant]	1.95	1.36	1.43	2.47	1.83	1.52
AUGACCCUGGGCAUCGAGUGA [Fam2.1 aminoacylation ribozyme variant]	8.34	3.97	3.32	7.35	7.08	42.4
AUGACCCUGGUCAGCGAGUGA [Fam2.1 aminoacylation ribozyme variant]	5.66	3.46	2.94	6.08	4.85	24.2
AUGACCCUGGUCAUCGAGAGA [Fam2.1 aminoacylation ribozyme variant]	1.52	1.28	1.34	1.36	1.47	2.57
AUGACCCUGGUCAUCGUGUGA [Fam2.1 aminoacylation ribozyme variant]	2.88	1.4	1.5	2.61	2.76	17.4
AUGACCCUGGUCAUCUAGUGA [Fam2.1 aminoacylation ribozyme variant]	8.57	3.75	3.7	9.46	8.18	63.5
